Measurements as given in US20130005646A1 (Novo Nordisk, published 2013).
Starred links: 1 amine or outer side, 2 acyl side, 3 side chain; linkers in the order of their positions; H or OH if unused. Positions of bridges follow the written chain, without caps; N, C: chain ends. Groups on a side chain read outwards from the residue. No end group written: not given here. *: point of attachment. C18 diacid = O=C(O)CCCCCCCCCCCCCCCCC(=O)*; γGlu = O=C(O)[C@H](CCC(=O)[*:2])N[*:1]; AEEA = NCCOCCOCC(=O)O

Assays:
[1] = molecular target: T1, human amylin 3(a) receptor (human calcitonin receptor + RAMP-3) (human, UniProt P30988 25-474; O60896 24-148); test: cell-based or functional assay
T1 sequence (looked up) 1: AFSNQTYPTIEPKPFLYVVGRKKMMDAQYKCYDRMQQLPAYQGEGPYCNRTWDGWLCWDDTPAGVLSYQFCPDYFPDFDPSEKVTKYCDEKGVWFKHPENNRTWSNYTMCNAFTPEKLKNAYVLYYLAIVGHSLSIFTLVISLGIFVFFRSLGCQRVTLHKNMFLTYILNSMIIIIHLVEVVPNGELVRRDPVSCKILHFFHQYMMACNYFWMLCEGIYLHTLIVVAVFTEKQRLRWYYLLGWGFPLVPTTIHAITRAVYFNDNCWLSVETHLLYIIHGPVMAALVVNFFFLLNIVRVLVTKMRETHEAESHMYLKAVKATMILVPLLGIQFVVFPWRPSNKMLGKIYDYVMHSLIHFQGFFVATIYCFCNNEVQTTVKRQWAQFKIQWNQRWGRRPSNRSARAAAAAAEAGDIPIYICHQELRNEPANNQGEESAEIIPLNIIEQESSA
T1 sequence (looked up) 2: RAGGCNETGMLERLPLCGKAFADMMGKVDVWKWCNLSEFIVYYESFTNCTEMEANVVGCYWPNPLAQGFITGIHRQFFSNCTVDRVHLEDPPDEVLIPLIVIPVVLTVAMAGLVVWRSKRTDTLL

[2] = molecular target: T2, human calcitonin (a) receptor (human, UniProt P30988 25-474); test: cell-based or functional assay
T2 sequence (looked up): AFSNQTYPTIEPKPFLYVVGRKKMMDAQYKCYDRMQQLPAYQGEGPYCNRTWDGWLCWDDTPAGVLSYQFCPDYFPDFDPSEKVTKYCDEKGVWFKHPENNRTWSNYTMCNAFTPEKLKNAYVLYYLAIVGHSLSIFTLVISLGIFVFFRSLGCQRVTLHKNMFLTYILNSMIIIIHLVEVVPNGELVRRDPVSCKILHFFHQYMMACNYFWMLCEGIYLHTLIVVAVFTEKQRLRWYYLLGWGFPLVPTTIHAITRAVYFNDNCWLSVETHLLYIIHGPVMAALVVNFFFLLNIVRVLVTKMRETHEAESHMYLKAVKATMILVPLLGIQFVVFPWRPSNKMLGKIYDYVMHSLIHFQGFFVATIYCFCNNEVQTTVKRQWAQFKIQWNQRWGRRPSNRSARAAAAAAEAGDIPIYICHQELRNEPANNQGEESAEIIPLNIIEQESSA

B1: N-alpha-[(S)-4-Carboxy-4-(17-carboxyheptadecanoylamino)butyryl]-His-[Glu14,Arg17,His35]-pramlintide (peptide)
peptide: {C18 diacid-γGlu}-HKCNTATCATQRLAEFLRHSSNNFGPILPPTNVGSHTY-NH2
modifications: disulfide 3-8
SMILES: CC[C@H](C)[C@H](NC(=O)[C@@H]1CCCN1C(=O)CNC(=O)[C@H](Cc1ccccc1)NC(=O)[C@H](CC(N)=O)NC(=O)[C@H](CC(N)=O)NC(=O)[C@H](CO)NC(=O)[C@H](CO)NC(=O)[C@H](Cc1c[nH]cn1)NC(=O)[C@H](CCCNC(=N)N)NC(=O)[C@H](CC(C)C)NC(=O)[C@H](Cc1ccccc1)NC(=O)[C@H](CCC(=O)O)NC(=O)[C@H](C)NC(=O)[C@H](CC(C)C)NC(=O)[C@H](CCCNC(=N)N)NC(=O)[C@H](CCC(N)=O)NC(=O)[C@@H](NC(=O)[C@H](C)NC(=O)[C@@H]1CSSC[C@H](NC(=O)[C@H](CCCCN)NC(=O)[C@H](Cc2c[nH]cn2)NC(=O)CC[C@H](NC(=O)CCCCCCCCCCCCCCCCC(=O)O)C(=O)O)C(=O)N[C@@H](CC(N)=O)C(=O)N[C@@H]([C@@H](C)O)C(=O)N[C@@H](C)C(=O)N[C@@H]([C@@H](C)O)C(=O)N1)[C@@H](C)O)C(=O)N[C@@H](CC(C)C)C(=O)N1CCC[C@H]1C(=O)N1CCC[C@H]1C(=O)N[C@H](C(=O)N[C@@H](CC(N)=O)C(=O)N[C@H](C(=O)NCC(=O)N[C@@H](CO)C(=O)N[C@@H](Cc1c[nH]cn1)C(=O)N[C@H](C(=O)N[C@@H](Cc1ccc(O)cc1)C(N)=O)[C@@H](C)O)C(C)C)[C@@H](C)O
- Amylin receptor human EC50 [1]: 0.0795 nM
- CTa receptor human EC50 [2]: 0.947 nM

B2: N-epsilon25-[2-(2-{2-[2-(2-{2-[(S)-4-Carboxy-4-(17-carboxyheptadecanoylamino)butyrylamino]ethoxy}ethoxy)acetylamino]ethoxy}ethoxy)acetyl]-[Glu14,Ser21,Lys25]-pr … (peptide)
peptide: KCNTATCATQRLAEFLVHSSSNFGK([AEEA-AEEA-γGlu-C18 diacid])ILPPTNVGSNTY-NH2
modifications: disulfide 2-7; N-terminus assumed
SMILES: CC[C@H](C)[C@H](NC(=O)[C@H](CCCCNC(=O)COCCOCCNC(=O)COCCOCCNC(=O)CC[C@H](NC(=O)CCCCCCCCCCCCCCCCC(=O)O)C(=O)O)NC(=O)CNC(=O)[C@H](Cc1ccccc1)NC(=O)[C@H](CC(N)=O)NC(=O)[C@H](CO)NC(=O)[C@H](CO)NC(=O)[C@H](CO)NC(=O)[C@H](Cc1c[nH]cn1)NC(=O)[C@@H](NC(=O)[C@H](CC(C)C)NC(=O)[C@H](Cc1ccccc1)NC(=O)[C@H](CCC(=O)O)NC(=O)[C@H](C)NC(=O)[C@H](CC(C)C)NC(=O)[C@H](CCCNC(=N)N)NC(=O)[C@H](CCC(N)=O)NC(=O)[C@@H](NC(=O)[C@H](C)NC(=O)[C@@H]1CSSC[C@H](NC(=O)[C@@H](N)CCCCN)C(=O)N[C@@H](CC(N)=O)C(=O)N[C@@H]([C@@H](C)O)C(=O)N[C@@H](C)C(=O)N[C@@H]([C@@H](C)O)C(=O)N1)[C@@H](C)O)C(C)C)C(=O)N[C@@H](CC(C)C)C(=O)N1CCC[C@H]1C(=O)N1CCC[C@H]1C(=O)N[C@H](C(=O)N[C@@H](CC(N)=O)C(=O)N[C@H](C(=O)NCC(=O)N[C@@H](CO)C(=O)N[C@@H](CC(N)=O)C(=O)N[C@H](C(=O)N[C@@H](Cc1ccc(O)cc1)C(N)=O)[C@@H](C)O)C(C)C)[C@@H](C)O
- Amylin receptor human EC50 [1]: 0.089 nM
- CTa receptor human EC50 [2]: 0.101 nM
